Assay: SPR affinity of His-tagged PikAIII ACPdd for nickel-NTA sensor chip
Type: binding
Conditions: BIAcore 3000, nickel-loaded NTA sensor chip, HBS-P+E pH 7.4

B1: His-tagged PikAIII ACPdd: C-terminal (ACP-side) docking domain of PikAIII, pikromycin PKS (protein)
chain: LAPAEPAPTDWEGRVRRALAELPLDRLRDAGVLDTVLRLTGIEPEPGSGGSDGGAADPGAEPEASIDDLDAEALIRMALGPRNT
modifications: left off: His6, N-terminal, kept
Q: With B1 as the molecule, how does the Kd read?
A: 4 ± 0.04 nM

— PMC2853223 (ACS chemical biology, 2009)
